The record followed here is the Human Domainome abundance scans (Beltran et al. 2025).

± gives the uncertainty stated by the source.

The chains are these.
B1: Peripheral plasma membrane protein CASK, residues 488 to 569; numbered along this chain, O14936 (parent)
chain: VRLVQFQKNTDEPMGITLKMNELNHCIVARIMHGGMIHRQGTLHVGDEIREINGISVANQTVEQLQKMLREMRGSITFKIVP

The variants in this data set derive from B1. Nature of the data set: abundance fitness (aPCA) (normalised: wild type 0, dead -1); higher = more abundant; growth selection in yeast, the domain comes from the species named. As to conditions: Homo sapiens.
As to Q64K, the abundance fitness is -0.018 ± 0.029.

Take Q64D: the abundance fitness was determined as 0.007 ± 0.039.

On to Q64G, for which the abundance fitness is -0.064 ± 0.022.

As for Q64S, the abundance fitness is -0.021 ± 0.023.

With Q64N, the abundance fitness was -0.025 ± 0.043.

Consider Q64I, for which the abundance fitness was 0.003 ± 0.042.

For the variant E71G, the abundance fitness came out at 0.006 ± 0.022.

As to M72C, the abundance fitness stood at 0.005 ± 0.03.

On to M72I, for which the abundance fitness amounted to 0.036 ± 0.042.

As to M72K, the abundance fitness was -0.072 ± 0.032.

Regarding M72Y, the abundance fitness is -0.055 ± 0.041.

M36F: the abundance fitness was 0.119 ± 0.082.

On to M36D, for which the abundance fitness is -0.044 ± 0.062.

As for M36L, the abundance fitness turned out to be 0.025 ± 0.037.

Take N9M: the abundance fitness is -0.012 ± 0.03.

On to N9H, for which the abundance fitness was -0.027 ± 0.04.

For the variant N9Q, the abundance fitness is -0.008 ± 0.027.

For the variant Q60M, the abundance fitness is -0.047 ± 0.031.

On to Q60D, for which the abundance fitness was -0.154 ± 0.036.

Take Q7A: the abundance fitness was -0.025 ± 0.024.

As to Q7D, the abundance fitness was determined as 0.079 ± 0.032.

As for Q7S, the abundance fitness is -0.042 ± 0.025.

For the variant Q7I, the abundance fitness was determined as 0.074 ± 0.036.

As for A29W, the abundance fitness was -0.068 ± 0.037.

As to A29E, the abundance fitness worked out at 0.003 ± 0.038.

For A29Y, the abundance fitness is -0.198 ± 0.11.

In the case of T42Y, the abundance fitness is -0.076 ± 0.037.

For T42E, the abundance fitness worked out at 0.012 ± 0.026.

Consider T42W, for which the abundance fitness was -0.246 ± 0.027.

Consider T42A, for which the abundance fitness came to 0.005 ± 0.024.

For K8R, the abundance fitness was -0.021 ± 0.022.

E12G: the abundance fitness is -0.059 ± 0.024.

Turning to E12Y, the abundance fitness was -0.237 ± 0.07.

Regarding E12A, the abundance fitness is -0.08 ± 0.031.

Take I49W: the abundance fitness was -1.04 ± 0.17.

Regarding I49T, the abundance fitness is -0.576 ± 0.095.

Regarding I49R, the abundance fitness was -0.858 ± 0.073.

Turning to I49N, the abundance fitness was -0.804 ± 0.2.

Turning to I49K, the abundance fitness is -0.823 ± 0.16.

For the variant I49V, the abundance fitness came out at 0.001 ± 0.035.

Take R70V: the abundance fitness is -0.018 ± 0.023.

Take R70E: the abundance fitness came to 0.016 ± 0.028.

With R70H, the abundance fitness is 0.02 ± 0.04.

With R70Y, the abundance fitness is -0.039 ± 0.049.

Consider R70I, for which the abundance fitness was -0.078 ± 0.038.

Take L43V: the abundance fitness is -0.021 ± 0.024.

As to L43P, the abundance fitness is -0.658 ± 0.06.

For L65N, the abundance fitness is -0.318 ± 0.069.

On to L65P, for which the abundance fitness was -1.02 ± 0.11.

On to M14N, for which the abundance fitness was -0.337 ± 0.047.

As for M14W, the abundance fitness is -0.042 ± 0.05.

For the variant M14Q, the abundance fitness was -0.531 ± 0.07.

For G46K, the abundance fitness was -0.706 ± 0.077.

Regarding G46W, the abundance fitness was -0.951 ± 0.092.

Regarding G46V, the abundance fitness was -1.04 ± 0.092.

With G46T, the abundance fitness was -0.992 ± 0.2.

Consider I76C, for which the abundance fitness is -0.028 ± 0.039.

On to I76L, for which the abundance fitness is -0.112 ± 0.028.

On to I76N, for which the abundance fitness was -0.186 ± 0.051.

On to I76S, for which the abundance fitness is -0.448 ± 0.037.

With I76R, the abundance fitness was -1.06 ± 0.065.

In the case of I76T, the abundance fitness is -0.269 ± 0.04.

As to S75W, the abundance fitness was -0.04 ± 0.031.

As for S75H, the abundance fitness was -0.047 ± 0.053.

Consider S75K, for which the abundance fitness worked out at 0.005 ± 0.033.

As for V45A, the abundance fitness is -0.045 ± 0.043.

For the variant V45S, the abundance fitness is -0.232 ± 0.051.

In the case of V45E, the abundance fitness is -0.054 ± 0.046.

For the variant R2M, the abundance fitness turned out to be 0.019 ± 0.033.

With R2E, the abundance fitness is -0.028 ± 0.034.

As for I80N, the abundance fitness was -0.836 ± 0.14.

For the variant I80E, the abundance fitness was -0.883 ± 0.21.

For the variant I80D, the abundance fitness is -1.32 ± 0.44.

For the variant I80R, the abundance fitness was -0.795 ± 0.081.

Consider I80V, for which the abundance fitness is 0.012 ± 0.037.

As to R73T, the abundance fitness was -0.003 ± 0.031.

Regarding R73I, the abundance fitness is -0.04 ± 0.046.

In the case of R73H, the abundance fitness is -0.044 ± 0.055.

As to R73Y, the abundance fitness is -0.157 ± 0.11.

For the variant R73S, the abundance fitness was 0.025 ± 0.025.

In the case of E48H, the abundance fitness was -0.108 ± 0.071.

For the variant E48A, the abundance fitness is -0.105 ± 0.033.

As for E48C, the abundance fitness is -0.017 ± 0.045.

For E48S, the abundance fitness is -0.071 ± 0.04.

Regarding E48L, the abundance fitness was -0.161 ± 0.037.

Regarding E48D, the abundance fitness is -0.108 ± 0.049.

Turning to E48M, the abundance fitness was -0.158 ± 0.049.

For E48T, the abundance fitness was -0.123 ± 0.053.

Consider V81G, for which the abundance fitness was -0.106 ± 0.041.

As for N53K, the abundance fitness is -0.816 ± 0.12.

Regarding N53I, the abundance fitness was -0.8 ± 0.21.

As for P82T, the abundance fitness was -0.042 ± 0.049.

Consider P82L, for which the abundance fitness was -0.214 ± 0.053.

Take P82W: the abundance fitness was -0.359 ± 0.091.

Take F78K: the abundance fitness was -0.964 ± 0.15.

With F78R, the abundance fitness is -0.812 ± 0.071.

As for F78P, the abundance fitness was -0.998 ± 0.12.

As for V1E, the abundance fitness was 0.03 ± 0.043.

With V1C, the abundance fitness was -0.056 ± 0.047.

On to V1Y, for which the abundance fitness is 0.017 ± 0.059.

Take V1N: the abundance fitness was 0.037 ± 0.048.

For the variant V1G, the abundance fitness was -0.037 ± 0.028.

In the case of V1F, the abundance fitness is -0.026 ± 0.049.

In the case of K79P, the abundance fitness is -1.14 ± 0.16.

As to K79M, the abundance fitness was -0.133 ± 0.044.

As for K79H, the abundance fitness was -0.006 ± 0.039.

On to L3N, for which the abundance fitness was -0.13 ± 0.053.

For the variant L3D, the abundance fitness is -0.141 ± 0.041.

Take L3V: the abundance fitness was 0.002 ± 0.026.

For L3P, the abundance fitness was -0.322 ± 0.044.

Take L3T: the abundance fitness is 0.033 ± 0.034.

Turning to L3I, the abundance fitness amounted to 0.085 ± 0.064.

Take L3W: the abundance fitness was -0.113 ± 0.026.

Regarding L3G, the abundance fitness was -0.307 ± 0.023.

With L3Q, the abundance fitness is 0.018 ± 0.03.

Regarding L3A, the abundance fitness is -0.14 ± 0.029.

Turning to N21V, the abundance fitness was -0.145 ± 0.028.

Regarding N21P, the abundance fitness was -0.33 ± 0.031.

Turning to N21H, the abundance fitness was -0.25 ± 0.038.

For the variant N21K, the abundance fitness is -0.186 ± 0.031.

Consider R50I, for which the abundance fitness amounted to 0.034 ± 0.089.

As to R50W, the abundance fitness is -0.118 ± 0.036.

For R50P, the abundance fitness was -0.774 ± 0.13.

As to R50C, the abundance fitness stood at 0.038 ± 0.056.

On to R50F, for which the abundance fitness was -0.211 ± 0.15.

With R50Y, the abundance fitness was -0.174 ± 0.09.

In the case of T61P, the abundance fitness was -0.048 ± 0.03.

As to T61E, the abundance fitness was -0.037 ± 0.037.

On to T61W, for which the abundance fitness is -0.853 ± 0.051.

With T61N, the abundance fitness was found to be 0.011 ± 0.038.

Consider T61Q, for which the abundance fitness is -0.047 ± 0.031.

As to T61R, the abundance fitness is -0.095 ± 0.022.

As to T61G, the abundance fitness is -0.015 ± 0.023.

Turning to P13L, the abundance fitness was -0.125 ± 0.04.

With P13Q, the abundance fitness is -0.183 ± 0.078.

As to P13Y, the abundance fitness was -0.154 ± 0.056.

In the case of P13F, the abundance fitness was -0.126 ± 0.059.

For the variant P13R, the abundance fitness is -0.183 ± 0.046.

P13N: the abundance fitness is -0.021 ± 0.042.

Take S56Q: the abundance fitness is -0.06 ± 0.029.

Take S56R: the abundance fitness was -0.052 ± 0.021.

For the variant S56D, the abundance fitness was determined as 0.023 ± 0.032.

As for S56G, the abundance fitness is -0.02 ± 0.022.

Turning to S56F, the abundance fitness was -0.229 ± 0.05.

For M32G, the abundance fitness is -0.093 ± 0.028.

As to M32E, the abundance fitness is 0.04 ± 0.037.

With M32V, the abundance fitness was 0.027 ± 0.034.

M32L: the abundance fitness was -0.083 ± 0.038.

For M32N, the abundance fitness is 0.062 ± 0.078.

As for F6M, the abundance fitness was determined as 0.052 ± 0.027.

In the case of F6A, the abundance fitness was -0.065 ± 0.022.

With F6L, the abundance fitness turned out to be 0.053 ± 0.023.

F6Q: the abundance fitness was -0.589 ± 0.049.

Turning to G35V, the abundance fitness was -0.485 ± 0.031.

For the variant G35I, the abundance fitness is -0.843 ± 0.17.

G35H: the abundance fitness was -0.068 ± 0.057.

Turning to T10G, the abundance fitness was -0.01 ± 0.024.

For the variant T10Q, the abundance fitness was -0.111 ± 0.044.

Consider T10W, for which the abundance fitness was -0.086 ± 0.031.

Turning to T10C, the abundance fitness amounted to 0.066 ± 0.041.

As to D47K, the abundance fitness is -1.04 ± 0.24.

For D47V, the abundance fitness was -0.859 ± 0.11.

D47L: the abundance fitness is -0.878 ± 0.13.

For Q66S, the abundance fitness was -0.012 ± 0.025.

For Q66W, the abundance fitness is -0.228 ± 0.027.

Q66L: the abundance fitness was -0.094 ± 0.024.

Q66F: the abundance fitness was -0.236 ± 0.049.
